Consider 1 protein from patent publication US20190269793.

In one series the target is T1, Vaccinia virus K3.
T1 chain: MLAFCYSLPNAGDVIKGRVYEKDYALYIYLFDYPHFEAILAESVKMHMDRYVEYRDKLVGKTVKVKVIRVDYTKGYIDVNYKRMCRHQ

A further series deals with T2, Vaccinia virus E3.
T2 chain: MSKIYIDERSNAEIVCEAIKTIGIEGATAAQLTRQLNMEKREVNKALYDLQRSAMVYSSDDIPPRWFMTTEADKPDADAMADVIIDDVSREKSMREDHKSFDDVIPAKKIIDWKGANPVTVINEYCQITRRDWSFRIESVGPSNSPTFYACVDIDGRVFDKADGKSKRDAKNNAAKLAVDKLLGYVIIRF

B1: RNA-dependent protein kinase (PKR) (protein)
chain: AGDLSAGFFMEELNTYRQKQGVVLKYQELPNSGPPHDRRFTFQVIIDGREFPEGEGRSKKEAKNAAAKLAVEILNKEKKAVSPLLLTTTNSSEGLSMGNYIGLINRIAQKKRLTVNYEQCASGVHGPEGFHYKCKMGQKEYSIGTGSTKQEAKQLAAKLAYLQILSEETSVKSDYLSSGSFATTCESQSNSLVTSTLASESSSEGDFSADTSEINSNSDSLNSSSLLMNGLRNNQRKAKRSLAPRFDLPDMKETKYTVDKRFGMDFKEIELIGSGGFGQVFKAKHRIDGKTYVIKRVKYNNEKAEREVKALAKLDHVNIVHYNGCWDGFDYDPETSDDSLESSDYDPENSKNSSRSKTKCLFIQMEFCDKGTLEQWIEKRRGEKLDKVLALELFEQITKGVDYIHSKKLIHRDLKPSNIFLVDTKQVKIGDFGLVTSLKNDGKRTRSKGTLRYMSPEQISSQDYGKEVDLYALGLILAELLHVCDTAFETSKFFTDLRDGIISDIFDKKEKTLLQKLLSKKPEDRPNTSEILRTLTVWKKSPEKNERHTC
B1: the “PKR autophosphorylation (Western blot with phospho-PKR specific antibody)” value with Vaccinia virus K3 was “E3 and K3 reduce PKR autophosphorylation”; with Vaccinia virus E3, “E3 and K3 reduce PKR autophosphorylation”.
